The assay addresses microtubules grown from porcine brain tubulin (porcine) (UniProt P02550). Put plainly: TIRF microscopy of fluorescent proteins on dynamic microtubules in vitro.

“augmin^CDK1/PLK1-GFP, Q96CS2-1;Q9NVX0-1;Q68CZ6-1;Q9H6D7-1;O94927-1;Q7Z4H7-1;Q99871-1;Q9BT25-1” had a fold intensity along MTs over NEDD1^CDK1/PLK1 of 20 fold.

Turning to “γ-TuRC^ΔWD/StN/CDK1/PLK1-GFP (γ-TuRC purified by Strep-NEDD1 ΔWD, GCP3-GFP) (from UniProt P23258;Q9BSJ2-1;Q96CW5-1;Q9UGJ1-2;Q96RT8-1;Q96RT7-1;Q08AG7;Q6P582;Q6NZ67;Q9Y5B8-1) (complex)”, the MT binding at 10 nM, percent of γ-TuRC^StN/CDK1/PLK1 came out at 21% and the MT binding at 50 nM, percent of γ-TuRC^StN/CDK1/PLK1 worked out at 13%.

The record behind these values is publication PMC9129923.
